Six molecules from patent US20260265321A1, “PEPTIDE AND POLYPEPTIDE INHIBITING THE NF-KB SIGNALING PATHWAY” (Centre National de la Recherche Scientifique, priority 2023, published 2026) can be followed below.

The target in experiment [1] is T1, 6×His-IKKβ(1-669) EE (Homo sapiens, UniProt O14920, S177E/S181E).
T1 construct: a nearly full-length (residues 1-669) and constitutively active (S177E/S181E) mutant construct of human IKKβ; made in house; host or cells: Sf21 insect cells (baculovirus)
T1 sequence (O14920 1-669 S177E/S181E): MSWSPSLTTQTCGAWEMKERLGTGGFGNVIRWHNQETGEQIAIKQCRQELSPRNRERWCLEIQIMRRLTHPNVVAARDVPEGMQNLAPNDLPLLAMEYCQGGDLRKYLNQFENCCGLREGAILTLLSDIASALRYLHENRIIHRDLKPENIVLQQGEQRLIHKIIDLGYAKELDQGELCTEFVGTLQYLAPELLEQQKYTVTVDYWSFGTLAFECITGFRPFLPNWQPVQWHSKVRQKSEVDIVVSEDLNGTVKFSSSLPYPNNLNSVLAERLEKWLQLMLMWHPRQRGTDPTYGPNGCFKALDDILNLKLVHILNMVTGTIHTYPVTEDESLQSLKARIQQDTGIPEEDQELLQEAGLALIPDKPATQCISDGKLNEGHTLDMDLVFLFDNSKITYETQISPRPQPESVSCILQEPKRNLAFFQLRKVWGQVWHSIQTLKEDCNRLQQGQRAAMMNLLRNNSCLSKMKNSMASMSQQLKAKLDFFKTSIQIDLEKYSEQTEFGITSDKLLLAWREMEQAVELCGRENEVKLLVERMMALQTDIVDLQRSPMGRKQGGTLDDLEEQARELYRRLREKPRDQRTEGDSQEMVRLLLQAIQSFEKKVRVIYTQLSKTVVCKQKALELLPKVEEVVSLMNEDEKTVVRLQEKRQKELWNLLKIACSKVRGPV
Description: MBP-pulldown of recombinant IKKβ by MBP-peptide fusions. The experiment is classed as binding. The note with it: 0.3 μM IKKβ, Western blot. On the procedure:
Experiments were performed in PD buffer (20 mM Tris pH 8.0, 150 mM NaCl, 2 mM DTT). For each experiment, 10 μl of amylose resin (dry bead volume) coupled to MBP-fusion constructs were incubated with […] of purified 6×His-IKKα(10-667) EE and 6×His-IKKβ (1-669) EE constructs adjusted at a concentration of 0.3 μM for 2 hours at 4° C. After two quick washing steps with PD buffer, complexes were eluted by incubation with 20 μl of the same buffer supplemented with 20 mM maltose for 15 minutes at 4° C. After mild centrifugation, supernatants were recovered and migrated onto two separate 10% SDS-PAGE gels. One gel was used for Western blot analysis to detect His-IKKα or His-IKKβ using and anti-6×His antibody (Sigma, #SAB4301134), the other for Coomassie staining to detect MBP-fusion proteins. Quantification of band intensity was done using the Image J software.
(A western blot detects proteins with antibodies after separation by electrophoresis.)

For experiment [2], the target named is T2, G1-IKKα, full-length wt IKKα fused to the Gluc1 fragment (human, UniProt O15111 1-745).
T2 construct: Expressed in HEK293T cells for GPCA; full-length; also called Gluc1-IKKα; not shown: Gluc1 fragment of Gaussia princeps luciferase and flexible 20 amino acid linker, N-terminal
T2 sequence (looked up): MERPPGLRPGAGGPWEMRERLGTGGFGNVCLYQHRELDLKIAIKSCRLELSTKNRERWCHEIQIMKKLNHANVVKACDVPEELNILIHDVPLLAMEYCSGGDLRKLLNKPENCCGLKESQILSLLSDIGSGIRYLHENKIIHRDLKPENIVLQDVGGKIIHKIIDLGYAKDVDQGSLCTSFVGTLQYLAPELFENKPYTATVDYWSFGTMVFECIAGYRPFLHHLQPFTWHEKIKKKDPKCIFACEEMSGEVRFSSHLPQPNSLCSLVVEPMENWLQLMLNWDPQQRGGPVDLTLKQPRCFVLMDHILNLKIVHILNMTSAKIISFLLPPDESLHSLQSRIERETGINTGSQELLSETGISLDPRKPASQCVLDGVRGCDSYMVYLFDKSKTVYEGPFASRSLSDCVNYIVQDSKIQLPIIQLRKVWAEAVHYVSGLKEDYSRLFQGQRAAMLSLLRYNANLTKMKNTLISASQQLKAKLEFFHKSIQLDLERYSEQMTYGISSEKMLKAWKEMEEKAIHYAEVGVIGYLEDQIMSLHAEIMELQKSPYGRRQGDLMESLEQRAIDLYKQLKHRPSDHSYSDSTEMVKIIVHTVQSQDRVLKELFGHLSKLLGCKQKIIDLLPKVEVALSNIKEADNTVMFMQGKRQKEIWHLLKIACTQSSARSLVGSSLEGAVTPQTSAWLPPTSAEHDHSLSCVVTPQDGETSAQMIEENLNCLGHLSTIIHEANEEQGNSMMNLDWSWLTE
Briefly: GPCA (Gaussia princeps protein complementation assay) in HEK293T cells, NLR, mean ± SD of triplicates. The protocol: (§1) HEK293T cells were transfected using the reverse transfection method. Transfection mixes containing 100 ng of pSPICA-N2 and 100 ng of pSPICA-N1 plasmids expressing test proteins plus JetPEI® (Polyplus transfection) were dispensed in white 96-well plates. HEK293T cells were then seeded on the DNA mixes at a concentration of 4.2×10^4 cells per well. 48 hours after transfection, cells were washed with 50 μl of PBS and lysed with 40 μl of Renilla lysis buffer (Promega, E2820) for 30 minutes with agitation. Gaussia princeps luciferase enzymatic activity was measured using a Berthold Centro LB960 luminometer by injecting 50 μl per well of luciferase substrate reagent (Promega, E2820) and counting luminescence for 10 seconds. Results are expressed as a fold change normalized over the sum of controls, specified herein as normalized luminescence ratio (NLR) 29. For a given protein pair A/B, NLR=(Gluc1-A+Gluc2-B)/[(Gluc1-A+Gluc2)+(Gluc1+Gluc2-B)]. All interactions were measured in three independent experiments, with each experiment being carried out in triplicate. The expression levels of Gluc1- and Gluc2-fused proteins were checked by Western blotting. 24 hours post-transfection, HEK293T cells were collected, lysed by incubation on ice and centrifuged. Aliquots of cleared supernatants were loaded onto an 10% SDS-PAGE gel.

The target of experiment [3] is T3, G1-IKKβ, full-length wt IKKβ fused to the Gluc1 fragment (human, UniProt O14920 1-756).
T3 construct: Expressed in HEK293T cells for GPCA; full-length; also called Gluc1-IKKβ; not shown: Gluc1 fragment of Gaussia princeps luciferase and flexible 20 amino acid linker, N-terminal
T3 sequence (looked up): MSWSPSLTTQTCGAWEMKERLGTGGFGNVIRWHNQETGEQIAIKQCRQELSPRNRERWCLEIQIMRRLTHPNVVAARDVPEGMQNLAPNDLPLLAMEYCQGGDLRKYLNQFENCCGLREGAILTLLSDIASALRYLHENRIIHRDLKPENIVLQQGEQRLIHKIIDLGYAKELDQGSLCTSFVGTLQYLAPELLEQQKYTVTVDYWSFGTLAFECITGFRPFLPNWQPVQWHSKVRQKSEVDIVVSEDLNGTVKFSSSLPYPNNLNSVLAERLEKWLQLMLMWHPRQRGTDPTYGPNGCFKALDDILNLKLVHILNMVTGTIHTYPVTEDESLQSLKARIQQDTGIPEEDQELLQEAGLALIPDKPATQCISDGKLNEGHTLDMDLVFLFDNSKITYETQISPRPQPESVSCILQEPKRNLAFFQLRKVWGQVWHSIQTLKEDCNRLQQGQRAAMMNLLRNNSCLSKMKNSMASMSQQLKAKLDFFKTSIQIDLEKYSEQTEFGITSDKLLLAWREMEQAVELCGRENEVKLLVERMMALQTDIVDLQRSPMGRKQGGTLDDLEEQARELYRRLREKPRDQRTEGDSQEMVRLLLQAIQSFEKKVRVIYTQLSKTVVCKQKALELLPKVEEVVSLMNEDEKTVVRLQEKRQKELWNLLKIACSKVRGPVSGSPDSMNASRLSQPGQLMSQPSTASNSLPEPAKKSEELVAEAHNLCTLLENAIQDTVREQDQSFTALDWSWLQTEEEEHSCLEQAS
Described as above. On the procedure:
as §1

For experiment [4], the target named is T2, G1-IKKα, full-length wt IKKα fused to …. Briefly: GPCA (Gaussia princeps protein complementation assay), G1-IKKα FL with G2-p100 constructs, NLR. On the procedure:
as §1

Turning to “DELPYDDCVFGGQRLTL [IκBα pep(s), 17 amino acid peptide from the IκBα C-terminus (residues 301-317)]”, in experiment [1], the “interaction with IKKβ by pulldown” value is “necessary and sufficient to interact with IKKβ”. Still for that read-out and setting: then “EFTEDELPYDDFVFGGQRLTL [C308F IκBα pep, IκBα pep with C308F substitution]”, with “clearly enhance binding to IKKβ”.

B1: 73-317 YD/SS (other)
chain: DGDSFLHLAIIHEEKALTMEVIRQVKGDLAFLNFQNNLQQTPLHLAVITNQPEIAEALLGAGCDPELRDFRGNTPLHLACEQGCLASVGVLTQSCTTPHLHSILKATNYNGHTCLHLASIHGYLGIVELLVSLGADVNAQEPCNGRTALHLAVDLQNPDLVSLLLKCGADVNRVTYQGYSPYQLTWGRPSTRIQQQLGQLTLENLQMLPESEDEESYDTESEFTEFTEDELPSDSCVFGGQRLTL
notes: also called G2-IκBα 73-317 YD/SS; G2-IκBα(73-317) Y305S/D307S; not shown: N-terminal Gluc2 fragment of Gaussia princeps luciferase and the flexible 20 amino acid linker (pSPICA-N2)
Take B1: the binding result in experiment [2] and in experiment [3] was “binds” in each case.

B2: G2-IκBα FL (other, UniProt P25963 1-317, looked up)
chain: MFQAAERPQEWAMEGPRDGLKKERLLDDRHDSGLDSMKDEEYEQMVKELQEIRLEPQEVPRGSEPWKQQLTEDGDSFLHLAIIHEEKALTMEVIRQVKGDLAFLNFQNNLQQTPLHLAVITNQPEIAEALLGAGCDPELRDFRGNTPLHLACEQGCLASVGVLTQSCTTPHLHSILKATNYNGHTCLHLASIHGYLGIVELLVSLGADVNAQEPCNGRTALHLAVDLQNPDLVSLLLKCGADVNRVTYQGYSPYQLTWGRPSTRIQQQLGQLTLENLQMLPESEDEESYDTESEFTEFTEDELPYDDCVFGGQRLTL
notes: range 1-317; Expressed in HEK293T cells for GPCA; also called full-length IκBα; not shown: Gluc2 fragment of Gaussia princeps luciferase and flexible 20 amino acid linker, N-terminal
Take B2: the binding result in experiment [2] and in experiment [3] was “binds” each time.

B3: 73-288 (other)
chain: DGDSFLHLAIIHEEKALTMEVIRQVKGDLAFLNFQNNLQQTPLHLAVITNQPEIAEALLGAGCDPELRDFRGNTPLHLACEQGCLASVGVLTQSCTTPHLHSILKATNYNGHTCLHLASIHGYLGIVELLVSLGADVNAQEPCNGRTALHLAVDLQNPDLVSLLLKCGADVNRVTYQGYSPYQLTWGRPSTRIQQQLGQLTLENLQMLPESEDEES
notes: also called G2-IκBα 73-288; IκBα(73-288); not shown: N-terminal Gluc2 fragment of Gaussia princeps luciferase and the flexible 20 amino acid linker (pSPICA-N2)
For B3, the binding result in experiment [2] and in experiment [3] was “binds” throughout.

B4: 39-852 (other)
chain: YLVIVEQPKQRGFRFRYGCEGPSHGGLPGASSEKGRKTYPTVKICNYEGPAKIEVDLVTHSDPPRAHAHSLVGKQCSELGICAVSVGPKDMTAQFNNLGVLHVTKKNMMGTMIQKLQRQRLRSRPQGLTEAEQRELEQEAKELKKVMDLSIVRLRFSAFLRASDGSFSLPLKPVISQPIHDSKSPGASNLKISRMDKTAGSVRGGDEVYLLCDKVQKDDIEVRFYEDDENGWQAFGDFSPTDVHKQYAIVFRTPPYHKMKIERPVTVFLQLKRKRGGDVSDSKQFTYYPLVEDKEEVQRKRRKALPTFSQPFGGGSHMGGGSGGAAGGYGGAGGGGSLGFFPSSLAYSPYQSGAGPMGCYPGGGGGAQMAATVPSRDSGEEAAEPSAPSRTPQCEPQAPEMLQRAREYNARLFGLAQRSARALLDYGVTADARALLAGQRHLLTAQDENGDTPLHLAIIHGQTSVIEQIVYVIHHAQDLGVVNLTNHLHQTPLHLAVITGQTSVVSFLLRVGADPALLDRHGDSAMHLALRAGAGAPELLRALLQSGAPAVPQLLHMPDFEGLYPVHLAVRARSPECLDLLVDSGAEVEATERQGGRTALHLATEMEELGLVTHLVTKLRANVNARTFAGNTPLHLAAGLGYPTLTRLLLKAGADIHAENEEPLCPLPSPPTSDSDSDSEGPEKDTRSSFRGHTPLDLTCSTKVKTLLLNAAQNTMEPPLTPPSPAGPGLSLGDTALQNLEQLLDGPEAQGSWAELAERLGLRSLVDTYRQTTSPSGSLLRSYELAGGDLAGLLEALSDMGLEEGVRLLRGPET
notes: also called G2-p100 39-852; not shown: N-terminal Gluc2 fragment of Gaussia princeps luciferase and the flexible 20 amino acid linker (pSPICA-N2)
Regarding B4, the binding result in experiment [4] is on record as “binds”.
